Assays:
HLA-A*02:06 = experiment: IEDB peptide-MHC binding, purified MHC/competitive/fluorescence; filed as Kd, often an IC50 or EC50 that approximates it; ≥ and ≤ were set here for values at or beyond the usual limits of such assays; conditions: source organism: Influenza A virus (A/X-31(H3N2))
HLA-B*18:01 [1] = experiment: as above
HLA-A*68:02 [2] = experiment: as above; conditions: source organism: Influenza A virus (A/X-31(H3N2))
HLA-B*39:01 [3] = experiment: as above; conditions: source organism: Influenza A virus (A/X-31(H3N2))
HLA-B*15:01 [4] = experiment: IEDB peptide-MHC binding, purified MHC/direct/fluorescence; filed as Kd, often an IC50 or EC50 that approximates it; ≥ and ≤ were set here for values at or beyond the usual limits of such assays
HLA-A*03:01 = experiment: as above
HLA-A*24:02 [5] = experiment: as above; conditions: source organism: Influenza A virus (A/Hong Kong/213/2003(H5N1))
HLA-B*58:01 = experiment: as above
HLA-A*26:03 [6] = experiment: as above; conditions: source organism: Influenza A virus (A/Taiwan/2/2006(H1N1))
HLA-A*26:02 [7] = experiment: as above; conditions: source organism: Influenza A virus (A/Taiwan/2/2006(H1N1))
HLA-A*24:03 = experiment: as above; conditions: source organism: Influenza A virus (A/Hong Kong/213/2003(H5N1))
HLA-B*08:01 = experiment: as above
HLA-A*02:12 = experiment: as above; conditions: source organism: Influenza A virus (A/Taiwan/2/2006(H1N1))
HLA-A*02:01 = experiment: as above
HLA-B*08:02 = experiment: as above
HLA-B*57:01 = experiment: as above
HLA-B*15:17 [8] = experiment: as above; conditions: source organism: Influenza A virus (A/Hong Kong/213/2003(H5N1))
HLA-B*15:09 = experiment: as above; conditions: source organism: Influenza A virus (A/Taiwan/2/2006(H1N1))
HLA-A*02:19 = experiment: as above; conditions: source organism: Influenza A virus (A/Taiwan/2/2006(H1N1))
HLA-A*23:01 = experiment: as above; conditions: source organism: Influenza A virus (A/Hong Kong/213/2003(H5N1))
HLA-A*31:01 = experiment: as above
HLA-A*02:03 = experiment: as above; conditions: source organism: Influenza A virus (A/Taiwan/2/2006(H1N1))
HLA-A*11:01 = experiment: as above
HLA-B*07:02 = experiment: as above
HLA-A*01:01 = experiment: as above
HLA-A*02:11 = experiment: as above; conditions: source organism: Influenza A virus (A/Taiwan/2/2006(H1N1))
HLA-B*27:05 = experiment: as above
HLA-A*24:02 [9] = experiment: IEDB peptide-MHC binding, purified MHC/competitive/fluorescence; filed as Kd, often an IC50 or EC50 that approximates it; ≥ and ≤ were set here for values at or beyond the usual limits of such assays
HLA-A*24:02 [10] = experiment: IEDB peptide-MHC binding, purified MHC/competitive/fluorescence; ≥ and ≤ were set here for values at or beyond the usual limits of such assays; conditions: source organism: West Nile virus
HLA-B*83:01 = experiment: IEDB peptide-MHC binding, purified MHC/competitive/fluorescence; filed as Kd, often an IC50 or EC50 that approximates it; ≥ and ≤ were set here for values at or beyond the usual limits of such assays; conditions: source organism: Bacillus anthracis str. A0488
HLA-B*15:42 = experiment: as above; conditions: source organism: Bacillus anthracis str. A0488
HLA-B*45:06 = experiment: as above; conditions: source organism: Bacillus anthracis str. A0488
HLA-C*14:02 = experiment: as above; conditions: source organism: Bacillus anthracis str. A0488
HLA-A*32:15 = experiment: as above; conditions: source organism: Bacillus anthracis str. A0488
HLA-B*46:01 = experiment: IEDB peptide-MHC binding, purified MHC/direct/fluorescence; filed as Kd, often an IC50 or EC50 that approximates it; ≥ and ≤ were set here for values at or beyond the usual limits of such assays; conditions: source organism: Bacillus anthracis str. Sterne
HLA-B*18:01 [11] = experiment: as above; conditions: source organism: Bacillus anthracis str. Sterne
HLA-A*26:01 [12] = experiment: as above; conditions: source organism: Bacillus anthracis str. Sterne
HLA-B*27:03 = experiment: as above; conditions: source organism: Bacillus anthracis str. Sterne
HLA-B*39:01 [13] = experiment: as above; conditions: source organism: Bacillus anthracis str. Sterne
HLA-B*15:01 [14] = experiment: IEDB peptide-MHC binding, purified MHC/competitive/fluorescence; filed as Kd, often an IC50 or EC50 that approximates it; ≥ and ≤ were set here for values at or beyond the usual limits of such assays; conditions: source organism: Vibrio parahaemolyticus RIMD 2210633
HLA-A*26:03 [15] = experiment: as above; conditions: source organism: Vibrio parahaemolyticus RIMD 2210633
HLA-A*26:02 [16] = experiment: as above; conditions: source organism: Vibrio parahaemolyticus RIMD 2210633
HLA-B*15:17 [17] = experiment: as above; conditions: source organism: Vibrio parahaemolyticus RIMD 2210633
HLA-A*26:01 [18] = experiment: as above; conditions: source organism: Vibrio parahaemolyticus RIMD 2210633
HLA-B*35:01 = experiment: as above; conditions: source organism: Vibrio parahaemolyticus RIMD 2210633
HLA-B*08:03 = experiment: IEDB peptide-MHC binding, purified MHC/direct/fluorescence; filed as Kd, often an IC50 or EC50 that approximates it; ≥ and ≤ were set here for values at or beyond the usual limits of such assays; conditions: source organism: Vibrio parahaemolyticus RIMD 2210633
HLA-B*48:01 = experiment: as above; conditions: source organism: Vibrio parahaemolyticus
HLA-B*40:01 = experiment: as above; conditions: source organism: Vibrio parahaemolyticus
HLA-A*68:02 [19] = experiment: as above; conditions: source organism: Vibrio parahaemolyticus
[20] = source organism: Influenza A virus (A/X-31(H3N2))
[21] = source organism: Influenza A virus (A/Hong Kong/213/2003(H5N1))
[22] = source organism: Influenza A virus (A/Taiwan/2/2006(H1N1))
[23] = source organism: Bacillus anthracis str. Sterne
[24] = source organism: Vibrio parahaemolyticus RIMD 2210633
[25] = source organism: Vibrio parahaemolyticus

Which results are given for CFMYSDFHF?
Kd (HLA-A*02:06): 49.2 nM; Kd (HLA-B*18:01 [1]; [20]): 1990 nM; Kd (HLA-A*68:02 [2]): 210 nM; Kd (HLA-B*39:01 [3]): ≥ 20000 nM; Kd (HLA-B*15:01 [4]; [21]): ≥ 20000 nM; Kd (HLA-A*03:01; [21]): ≥ 20000 nM; Kd (HLA-A*24:02 [5]): 21 nM; Kd (HLA-B*58:01; [21]): 74.5 nM; Kd (HLA-A*26:03 [6]): ≥ 20000 nM; Kd (HLA-A*26:02 [7]): ≥ 20000 nM; Kd (HLA-A*24:03): 7.5 nM; Kd (HLA-B*08:01; [22]): ≥ 20000 nM; Kd (HLA-A*02:12): 243 nM; Kd (HLA-A*02:01; [21]): 141 nM; Kd (HLA-B*08:02; [22]): ≥ 20000 nM; Kd (HLA-B*57:01; [21]): ≥ 20000 nM; Kd (HLA-B*15:17 [8]): ≥ 20000 nM; Kd (HLA-B*15:09): ≥ 20000 nM; Kd (HLA-A*02:19): 268 nM; Kd (HLA-A*23:01): ≤ 1 nM; Kd (HLA-A*31:01; [21]): ≥ 20000 nM; Kd (HLA-A*02:03): 307 nM; Kd (HLA-A*11:01; [21]): ≥ 20000 nM; Kd (HLA-B*07:02; [21]): ≥ 20000 nM; Kd (HLA-A*01:01; [21]): ≥ 20000 nM; Kd (HLA-A*02:11): 126 nM; Kd (HLA-B*27:05; [21]): ≥ 20000 nM

How did the Kd (HLA-A*24:02 [9]; [20]) turn out when KTHIHIFSF was run?
The Kd was 85.5 nM.

Which IC50 (HLA-A*24:02 [10]) does the source give for RYLVKTESW here?
Its IC50 is 264 nM.

What about the Kd (HLA-A*24:02 [9]; source organism: West Nile virus) of the same sequence?
Its Kd is 0.4 nM.

How did the Kd (HLA-B*83:01) turn out when TTYVYTLPV was run?
The Kd was no less than 5000 nM.

What about the Kd (HLA-B*15:42) of the same sequence?
Its Kd is no less than 5000 nM.

What about the Kd (HLA-B*45:06) of the same sequence?
Its Kd is no less than 5000 nM.

What about the Kd (HLA-C*14:02) of the same sequence?
The Kd was 3.5 nM.

What about the Kd (HLA-A*32:15) of the same sequence?
The Kd was 370 nM.

What about the Kd (HLA-B*15:01 [4]; [23]) of the same sequence?
Its Kd is no less than 20000 nM.

And the Kd (HLA-B*46:01)?
The Kd was no less than 20000 nM.

What about the Kd (HLA-A*02:01; [23]) of the same sequence?
The Kd was 90 nM.

What about the Kd (HLA-B*57:01; [23]) of the same sequence?
Its Kd is no less than 20000 nM.

And the Kd (HLA-B*18:01 [11])?
Its Kd is no less than 20000 nM.

And the Kd (HLA-A*26:01 [12])?
Its Kd is no less than 20000 nM.

What about the Kd (HLA-B*27:03) of the same sequence?
Its Kd is no less than 20000 nM.

And the Kd (HLA-B*39:01 [13])?
The Kd was no less than 20000 nM.

With ILRPLGIEY as the sequence, how does the Kd (HLA-B*15:01 [14]) read?
The Kd was 282 nM.

And the Kd (HLA-A*26:03 [15])?
Its Kd is no less than 20000 nM.

And the Kd (HLA-A*26:02 [16])?
The Kd was 403 nM.

And the Kd (HLA-B*18:01 [1]; [24])?
Its Kd is 159 nM.

And the Kd (HLA-B*15:17 [17])?
Its Kd is 48.8 nM.

What about the Kd (HLA-A*26:01 [18]) of the same sequence?
The Kd was 478 nM.

And the Kd (HLA-B*35:01)?
The Kd was 226 nM.

And the Kd (HLA-A*03:01; [25])?
Its Kd is 116 nM.

And the Kd (HLA-B*08:03)?
The Kd was no less than 20000 nM.

And the Kd (HLA-B*58:01; [25])?
Its Kd is no less than 20000 nM.

And the Kd (HLA-B*08:01; [24])?
Its Kd is no less than 20000 nM.

And the Kd (HLA-A*02:01; [25])?
Its Kd is no less than 20000 nM.

And the Kd (HLA-B*08:02; [24])?
The Kd was no less than 20000 nM.

And the Kd (HLA-B*57:01; [25])?
Its Kd is 1530 nM.

What about the Kd (HLA-A*31:01; [25]) of the same sequence?
Its Kd is no less than 20000 nM.

And the Kd (HLA-A*11:01; [25])?
The Kd was no less than 20000 nM.

And the Kd (HLA-B*48:01)?
The Kd was no less than 20000 nM.

What about the Kd (HLA-B*40:01) of the same sequence?
Its Kd is no less than 20000 nM.

What about the Kd (HLA-B*07:02; [25]) of the same sequence?
Its Kd is no less than 20000 nM.

And the Kd (HLA-A*68:02 [19])?
Its Kd is no less than 20000 nM.

And the Kd (HLA-A*01:01; [25])?
The Kd was 2020 nM.

And the Kd (HLA-B*27:05; [25])?
Its Kd is no less than 20000 nM.

Reference: the Immune Epitope Database (IEDB)
